{"source": "the supplement of paper PMC10567573", "parents": {"B1": {"name": "ZNF75A (parent)", "chain": "RTHTGEQPYTCSICRRNFSRRSSL"}}}
{"variants_of": "B1", "experiment": "protein stability index of a GFP-peptide fusion (GPS, HEK-293T) (PSI 1-6); higher = more stable", "settings": "c terminus: a fixed tail appended"}
{"variant": "G5C", "protein stability index": 4.64}
{"variant": "G5H", "protein stability index": 3.52}
{"variant": "G5I", "protein stability index": 3.82}
{"variant": "G5Y", "protein stability index": 2.21}
{"variant": "G5K", "protein stability index": 2.74}
{"variant": "G5R", "protein stability index": 3.07}
{"variant": "G5P", "protein stability index": 2.78}
{"variant": "R15T", "protein stability index": 2.34}
{"variant": "R15E", "protein stability index": 2.03}
{"variant": "R15Y", "protein stability index": 1.89}
{"variant": "R15V", "protein stability index": 1.7}
{"variant": "R15H", "protein stability index": 2.49}
{"variant": "R15I", "protein stability index": 2.32}
{"variant": "R15L", "protein stability index": 1.54}
{"variant": "R15K", "protein stability index": 2.86}
{"variant": "R15C", "protein stability index": 2}
{"variant": "I13E", "protein stability index": 2.71}
{"variant": "I13L", "protein stability index": 2.25}
{"variant": "I13D", "protein stability index": 2.65}
{"variant": "I13A", "protein stability index": 2.54}
{"variant": "I13W", "protein stability index": 2.51}
{"variant": "F18I", "protein stability index": 2.28}
{"variant": "F18R", "protein stability index": 3.99}
{"variant": "F18S", "protein stability index": 2.69}
{"variant": "F18Y", "protein stability index": 2.61}
{"variant": "T2H", "protein stability index": 3.33}
{"variant": "T2L", "protein stability index": 2.82}
{"variant": "T2E", "protein stability index": 2.78}
{"variant": "T2C", "protein stability index": 3.17}
{"variant": "T2S", "protein stability index": 2.53}
{"variant": "T2A", "protein stability index": 3.58}
{"variant": "T2R", "protein stability index": 3.46}
{"variant": "Q7R", "protein stability index": 2.96}
{"variant": "Q7V", "protein stability index": 2.41}
{"variant": "Q7T", "protein stability index": 2.49}
{"variant": "Q7C", "protein stability index": 4.67}
{"variant": "Q7P", "protein stability index": 2.57}
{"variant": "Q7E", "protein stability index": 3.43}
{"variant": "Q7G", "protein stability index": 2.45}
{"variant": "Q7L", "protein stability index": 2.7}
{"variant": "C14V", "protein stability index": 4.03}
{"variant": "C14T", "protein stability index": 4.21}
{"variant": "C14D", "protein stability index": 3.7}
{"variant": "C14K", "protein stability index": 4.03}
{"variant": "C14S", "protein stability index": 4.04}
{"variant": "C14H", "protein stability index": 3.87}
{"variant": "C14Y", "protein stability index": 3.66}
{"variant": "C14A", "protein stability index": 3.67}
{"variant": "S22M", "protein stability index": 2.25}
{"variant": "S22L", "protein stability index": 2.91}
{"variant": "S22K", "protein stability index": 3.16}
{"variant": "S22N", "protein stability index": 2.65}
{"variant": "S22Q", "protein stability index": 2.77}
{"variant": "C11R", "protein stability index": 3.74}
{"variant": "T10Q", "protein stability index": 2.32}
{"variant": "T10F", "protein stability index": 2.71}
{"variant": "T10P", "protein stability index": 3.09}
{"variant": "T10S", "protein stability index": 2.01}
{"variant": "T10A", "protein stability index": 2.85}
{"variant": "T10L", "protein stability index": 2.88}
{"variant": "T10R", "protein stability index": 2.57}
{"variant": "T10I", "protein stability index": 3.52}
{"variant": "T10Y", "protein stability index": 2.5}
{"variant": "R21C", "protein stability index": 2.24}
{"variant": "R21W", "protein stability index": 2.69}
{"variant": "R21M", "protein stability index": 2.37}
{"variant": "R21Y", "protein stability index": 1.39}
{"variant": "R21Q", "protein stability index": 3.09}
{"variant": "R21V", "protein stability index": 1.95}
{"variant": "R21D", "protein stability index": 2.73}
{"variant": "E6V", "protein stability index": 1.93}
{"variant": "E6W", "protein stability index": 2.02}
{"variant": "E6D", "protein stability index": 2.49}
{"variant": "E6G", "protein stability index": 2.55}
{"variant": "E6L", "protein stability index": 2.52}
{"variant": "E6A", "protein stability index": 2.86}
{"variant": "E6Y", "protein stability index": 2.44}
{"variant": "E6T", "protein stability index": 2.94}
{"variant": "L24T", "protein stability index": 3.03}
{"variant": "L24Y", "protein stability index": 3.03}
{"variant": "L24P", "protein stability index": 3.82}
{"variant": "L24G", "protein stability index": 3.1}
{"variant": "S12T", "protein stability index": 2.82}
{"variant": "S12G", "protein stability index": 2.38}
{"variant": "S12L", "protein stability index": 2.04}
{"variant": "S12Q", "protein stability index": 2.61}
{"variant": "S12D", "protein stability index": 3.1}
{"variant": "S12W", "protein stability index": 2.21}
{"variant": "S12M", "protein stability index": 2.41}
{"variant": "S12E", "protein stability index": 2.26}
{"variant": "S19F", "protein stability index": 2.59}
{"variant": "S19A", "protein stability index": 2.04}
{"variant": "S19E", "protein stability index": 3.05}
{"variant": "S19V", "protein stability index": 2.4}
{"variant": "S19K", "protein stability index": 2.91}
{"variant": "S19T", "protein stability index": 3.25}
{"variant": "S19P", "protein stability index": 2.23}
{"variant": "S19W", "protein stability index": 2.21}
{"variant": "S19I", "protein stability index": 3.39}
{"variant": "S19G", "protein stability index": 2.68}
{"variant": "N17D", "protein stability index": 2.3}
{"variant": "N17W", "protein stability index": 2.46}
{"variant": "N17C", "protein stability index": 3.01}
{"variant": "N17V", "protein stability index": 2.62}
{"variant": "N17F", "protein stability index": 2.36}
{"variant": "N17M", "protein stability index": 2.3}
{"variant": "S23F", "protein stability index": 1.78}
{"variant": "S23M", "protein stability index": 2.33}
{"variant": "S23N", "protein stability index": 2.63}
{"variant": "S23L", "protein stability index": 2.15}
{"variant": "S23R", "protein stability index": 2.9}
{"variant": "S23V", "protein stability index": 2.5}
{"variant": "S23W", "protein stability index": 2.34}
{"variant": "S23I", "protein stability index": 2.13}
{"variant": "R20P", "protein stability index": 2.36}
{"variant": "R20W", "protein stability index": 1.52}
{"variant": "R20F", "protein stability index": 1.72}
{"variant": "R20Y", "protein stability index": 2.24}
{"variant": "R20K", "protein stability index": 2.12}
{"variant": "R20V", "protein stability index": 2.46}
{"variant": "R20E", "protein stability index": 1.83}
{"variant": "P8C", "protein stability index": 2.52}
{"variant": "P8N", "protein stability index": 3.01}
{"variant": "P8T", "protein stability index": 3.76}
{"variant": "P8R", "protein stability index": 2.35}
{"variant": "P8G", "protein stability index": 3.4}
{"variant": "R1F", "protein stability index": 2.12}
{"variant": "R1M", "protein stability index": 2.33}
{"variant": "R1D", "protein stability index": 3.34}
{"variant": "R1E", "protein stability index": 3.62}
{"variant": "R1I", "protein stability index": 3.06}
{"variant": "R1L", "protein stability index": 2.28}
{"variant": "T4F", "protein stability index": 3.28}
{"variant": "T4N", "protein stability index": 3.85}
{"variant": "T4L", "protein stability index": 2.96}
{"variant": "T4M", "protein stability index": 2.66}
{"variant": "T4K", "protein stability index": 2.77}
{"variant": "T4P", "protein stability index": 2.4}
{"variant": "T4V", "protein stability index": 3.29}
{"variant": "T4Q", "protein stability index": 2.33}
{"variant": "T4G", "protein stability index": 2.91}
{"variant": "T4C", "protein stability index": 2.15}
{"variant": "Y9H", "protein stability index": 3.02}
{"variant": "Y9R", "protein stability index": 2.46}
{"variant": "Y9Q", "protein stability index": 2.32}
{"variant": "Y9D", "protein stability index": 2.92}
{"variant": "Y9K", "protein stability index": 2.17}
{"variant": "Y9F", "protein stability index": 2.64}
{"variant": "Y9C", "protein stability index": 4.17}
{"variant": "Y9E", "protein stability index": 3.15}
{"variant": "Y9S", "protein stability index": 2.55}
{"variant": "Y9M", "protein stability index": 2.27}
{"variant": "Y9L", "protein stability index": 2.39}
{"variant": "H3R", "protein stability index": 3.47}
{"variant": "H3Y", "protein stability index": 2.73}
{"variant": "H3T", "protein stability index": 2.76}
{"variant": "H3A", "protein stability index": 2.69}
{"variant": "H3P", "protein stability index": 3.17}
{"variant": "H3M", "protein stability index": 2.57}
{"variant": "H3G", "protein stability index": 2.76}
{"variant": "H3E", "protein stability index": 3.1}
{"variant": "R16Y", "protein stability index": 1.59}
{"variant": "R16I", "protein stability index": 1.88}
{"variant": "R16H", "protein stability index": 1.59}
{"variant": "R16E", "protein stability index": 2.53}
{"variant": "R16G", "protein stability index": 2.05}
{"variant": "R16S", "protein stability index": 1.86}
